From patent US20260242478A1 (published 2026)
Where no end group is shown, it is not given here.

B1: Phage-529 (peptide)
peptide: YCQGHLPMYMAKCL
modifications: cysteine pairing not given here; also: displayed on phage as fusion to pIII, linker, pIII sequence and order not given here
notes: Clonal phage supernatant; not shown: pIII filament protein of the bacteriophage to which the peptide is fused
B2: Phage-532 (peptide)
peptide: YCQGHLPMYMEKCL
modifications: cysteine pairing not given here; also: displayed on phage as fusion to pIII, linker, pIII sequence and order not given here
notes: as for B1
B3: Phage-528 (peptide)
peptide: YCDGHLPQYMAKCL
modifications: cysteine pairing not given here; also: displayed on phage as fusion to pIII, linker, pIII sequence and order not given here
notes: as for B1
B4: Phage-533 (peptide)
peptide: YCEGHLPQYMAKCL
modifications: cysteine pairing not given here; also: displayed on phage as fusion to pIII, linker, pIII sequence and order not given here
notes: as for B1
B5: Phage-9 (peptide, not shown: large carriers)
peptide: MDWCPRERWVDCFF
modifications: cysteine pairing not given here; also: displayed on phage as fusion to pIII, linker not given here
notes: Clonal phage supernatant
B6: Phage-539 (peptide)
peptide: YCEGHLPEYMLKCL
modifications: cysteine pairing not given here; also: displayed on phage as fusion to pIII, linker, pIII sequence and order not given here
notes: as for B1
B7: Phage-531 (peptide)
peptide: YCDGHSPMYILKCL
modifications: cysteine pairing not given here; also: displayed on phage as fusion to pIII, linker, pIII sequence and order not given here
notes: as for B1
B8: Phage-538 (peptide)
peptide: YCDGHLPEYREKCF
modifications: cysteine pairing not given here; also: displayed on phage as fusion to pIII, linker, pIII sequence and order not given here
notes: as for B1
B9: Phage-27 (peptide, not shown: large carriers)
peptide: MDWCPRDLWHLCFS
modifications: cysteine pairing not given here; also: displayed on phage as fusion to pIII, linker and pIII sequence not given here
notes: Clonal phage supernatant
B10: Phage-19 (peptide, not shown: large carriers)
peptide: MDWCPIDLWNECFF
modifications: cysteine pairing not given here; also: phage-displayed pIII fusion, pIII and linker not given here
notes: Clonal phage supernatant
B11: Phage-527 (peptide)
peptide: YCDGHLPEYMSKCL
modifications: cysteine pairing not given here; also: displayed on phage as fusion to pIII, linker, pIII sequence and order not given here
notes: as for B1
B12: Phage-530 (peptide)
peptide: YCDGHLPEYMMKCL
modifications: cysteine pairing not given here; also: displayed on phage as fusion to pIII, linker, pIII sequence and order not given here
notes: as for B1
B13: Phage-536 (peptide)
peptide: YCDGHLPIYMSKCL
modifications: cysteine pairing not given here; also: displayed on phage as fusion to pIII, linker, pIII sequence and order not given here
notes: as for B1
B14: Phage-537 (peptide)
peptide: YCEGHSWANLGKCL
modifications: cysteine pairing not given here; also: displayed on phage as fusion to pIII, linker, pIII sequence and order not given here
notes: as for B1
B15: Phage-526 (peptide)
peptide: YCEGHSPEYMAKCL
modifications: cysteine pairing not given here; also: displayed on phage as fusion to pIII, linker, pIII sequence and order not given here
notes: as for B1
B16: Phage-26 (peptide, not shown: large carriers)
peptide: MDWCPRDLWHECFA
modifications: cysteine pairing not given here; also: phage-displayed pIII fusion, pIII and linker not given here
notes: Clonal phage supernatant
B17: Phage-535 (peptide)
peptide: YCDGHLPMYMQKCL
modifications: cysteine pairing not given here; also: displayed on phage as fusion to pIII, linker, pIII sequence and order not given here
notes: as for B1
B18: Phage-534 (peptide)
peptide: YCDGHSPLYMWKCL
modifications: cysteine pairing not given here; also: displayed on phage as fusion to pIII, linker, pIII sequence and order not given here
notes: as for B1
B19: Phage-25 (peptide, not shown: large carriers)
peptide: MDWCPRDLWDLCFA
modifications: cysteine pairing not given here; also: phage-displayed pIII fusion, pIII and linker not given here
notes: Clonal phage supernatant
B20: Phage-30 (peptide, not shown: large carriers)
peptide: MDWCPRDMWDECFA
modifications: cysteine pairing not given here; also: peptide displayed as fusion to phage pIII
notes: Clonal phage supernatant

Experiments:
[1] = molecular target: T1, Anti-CD28 Fab (SEQ ID NOs: 696, 697); experiment: phage binding ELISA; Fab wells pre-incubated with CD28 antigen as competitor, anti-M13 HRP
T1 construct: Biotinylated and captured on neutravidin coated plates in the phage ELISA
T1 sequence (VH, as listed by the source, chain 1 of 2): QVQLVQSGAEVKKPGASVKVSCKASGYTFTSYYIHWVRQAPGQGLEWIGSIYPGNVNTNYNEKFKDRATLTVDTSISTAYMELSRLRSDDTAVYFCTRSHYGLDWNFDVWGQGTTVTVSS
T1 sequence (VL, as listed by the source, chain 2 of 2): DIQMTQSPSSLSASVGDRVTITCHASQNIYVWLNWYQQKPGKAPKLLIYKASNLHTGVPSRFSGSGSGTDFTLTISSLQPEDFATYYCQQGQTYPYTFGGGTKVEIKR
Method: (§1) After panning, phage infected bacteria were plated out and colonies picked into 96 well blocks. Clonal phage was then amplified and separated from bacterial cells via centrifugation.
(§2) Clonal phage were harvested as crude supematants and screened via standard ELISAs. […] Prior to the addition of clonal phage, wells were incubated with blocking buffer and CD28 antigen or blocking buffer alone. Without washing or aspirating, clonal phage supematants were then added to the wells and incubated for a short time. Wells were then washed followed by detection of bound phage using a horse radish conjugated anti-M13 antibody. Clonal phage of interest were then sent for sequence analysis.

[2] = molecular target: T1, Anti-CD28 Fab (SEQ ID NOs: 696, 697); experiment: phage binding ELISA; biotinylated Fab on neutravidin plate, clonal phage supernatant, anti-M13 HRP;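 note: clones picked after panning, added to wells pre-incubated with CD28 antigen or with blocking buffer only, no wash before phage addition, bound phage read after washing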
Method: as §1, §2

[3] = molecular target: T2, anti-CD28 scFv (VH - linker 1 - VL) (biotinylated (site not stated)); experiment: same phage ELISA, wells pre-incubated with soluble CD28 (competitor)
T2 sequence (scFv, as listed by the source): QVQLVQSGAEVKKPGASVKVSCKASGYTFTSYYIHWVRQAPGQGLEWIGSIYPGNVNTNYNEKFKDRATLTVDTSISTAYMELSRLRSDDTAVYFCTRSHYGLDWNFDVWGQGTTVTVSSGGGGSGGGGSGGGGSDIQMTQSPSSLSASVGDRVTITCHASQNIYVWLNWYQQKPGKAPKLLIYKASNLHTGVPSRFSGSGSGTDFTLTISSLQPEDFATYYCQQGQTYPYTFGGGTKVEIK

[4] = molecular target: T2, anti-CD28 scFv (VH - linker 1 - VL); experiment: phage ELISA; biotinylated anti-CD28 scFv on neutravidin plate, clonal phage supernatant, anti-M13-HRP detection;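 note: before phage addition, wells were pretreated with soluble CD28 protein in blocking buffer, or with blocking buffer only as the comparison, then phage were added without washing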
[5] = molecular target: T3, Anti-CD28 Fab (SEQ ID NOs: 696, 697); experiment: phage ELISA; Fab-coated wells pre-incubated with CD28 antigen as competitor, anti-M13-HRP detection
T3 construct: In the phage ELISA the Fab was biotinylated and captured on neutravidin coated plates
T3 sequence (VH, as listed by the source, chain 1 of 2): as the sequence (VH, as listed by the source, chain 1 of 2) above
T3 sequence (VL, as listed by the source, chain 2 of 2): as the sequence (VL, as listed by the source, chain 2 of 2) above
Method: as §1, §2

[6] = molecular target: T3, Anti-CD28 Fab (SEQ ID NOs: 696, 697); experiment: phage ELISA; biotinylated anti-CD28 Fab on neutravidin plates, bound phage detected with anti-M13-HRP
Method: as §1, §2

Binder | Anti-CD28 Fab signal in the presence of CD28 [1] | Anti-CD28 Fab (SEQ ID NOs: 696, 697) signal [2] | CD28 scFv signal in presence of CD28 [3] | CD28 scFv signal [4] | further results
B1 | 0.08 | 2.34 |  |  | 
B2 | 0.09 | 2.34 |  |  | 
B3 | 0.15 | 2.35 |  |  | 
B4 | 0.14 | 2.34 |  |  | 
B5 |  |  | 0.489 | 2.04 | 
B6 | 0.09 | 2.32 |  |  | 
MDWCPIYLWSECFN (peptide, not shown: large carriers, Clonal phage supernatant) [Phage-21] |  |  | 0.513 | 2.63 | 
B7 | 0.08 | 2.34 |  |  | 
YCDGHSDQYMWKCL (Tested as clonal phage supernatant) [Phage-711] |  |  |  |  | Phage binding ELISA, Anti-CD28 Fab signal in the presence of CD28 [5]: 0.11; Phage binding ELISA, Anti-CD28 Fab signal [6]: 2
MDWCPIHLWHVCFN (peptide, not shown: large carriers, cysteine pairing not given here; also: displayed as fusion to phage pIII, Clonal phage supernatant) [Phage-20] |  |  | 0.167 | 2.53 | 
B8 | 0.07 | 2.32 |  |  | 
B9 |  |  | 0.29 | 2.59 | 
B10 |  |  | 0.187 | 2.52 | 
B11 | 0.14 | 2.35 |  |  | 
B12 | 0.11 | 2.34 |  |  | 
B13 | 0.08 | 2.32 |  |  | 
MDWCPLYLWNECFN (peptide, not shown: large carriers, Clonal phage supernatant) [Phage-24] |  |  | 0.247 | 2.61 | 
YCDGHSPIYMSKCL (Tested as clonal phage supernatant) [Phage-710] |  |  |  |  | Phage binding ELISA, Anti-CD28 Fab signal in the presence of CD28 [5]: 0.09; Phage binding ELISA, Anti-CD28 Fab signal [6]: 2
B14 | 0.08 | 2.32 |  |  | 
MDWCPMHLWHQCFN (peptide, not shown: large carriers, Clonal phage supernatant) [Phage-39] |  |  | 0.299 | 2.56 | 
B15 | 0.07 | 2.35 |  |  | 
B16 |  |  | 0.277 | 2.71 | 
YCEGHLSQYMQKCL (Tested as clonal phage supernatant) [Phage-709] |  |  |  |  | Phage binding ELISA, Anti-CD28 Fab signal in the presence of CD28 [5]: 0.09; Phage binding ELISA, Anti-CD28 Fab signal [6]: 2
B17 | 0.11 | 2.33 |  |  | 
YCDGHLPQYMSKCL (Tested as clonal phage supernatant) [Phage-712] |  |  |  |  | Phage binding ELISA, Anti-CD28 Fab signal in the presence of CD28 [5]: 0.1; Phage binding ELISA, Anti-CD28 Fab signal [6]: 2
MDWCPRDLWSECFF (peptide, not shown: large carriers, Clonal phage supernatant) [Phage-28] |  |  | 0.218 | 2.57 | 
B18 | 0.08 | 2.34 |  |  | 
B19 |  |  | 0.219 | 2.7 | 
B20 |  |  | 0.25 | 2.59 | 
MDWCPRDMWSECFA (peptide, not shown: large carriers, Clonal phage supernatant) [Phage-31] |  |  | 0.293 | 2.7 | 
